Patent US20100286027A1, “ANTI-BACTERIAL COMPOSITIONS” (priority 2008, published 2010)

Columns and labels:
[1] = test system: Bacteroides fragilis NB85001; assay: MIC against anaerobic bacteria; format: cell-based
[2] = test system: Fusobacterium nucleatum NB86006; assay: MIC against anaerobic bacteria; format: cell-based
[3] = test system: Eubacterium lentum NB94001; assay: MIC against anaerobic bacteria; format: cell-based
[4] = test system: Clostridium perfringens NB95001; format: cell-based; conditions: anaerobic
[5] = test system: Clostridium difficile NB95002; assay: MIC against anaerobic bacteria; format: cell-based
[6] = test system: Clostridium ramosum NB95010; assay: MIC against anaerobic bacteria; format: cell-based
[7] = test system: Propionibacterium acnes NB99001; assay: MIC against anaerobic bacteria; format: cell-based
[8] = test system: E. coli NB27004; assay: MIC against aerobic gram negative bacteria; format: cell-based, Escherichia coli
[9] = test system: E. coli NB27005* (TolC efflux pump mutant); assay: MIC against aerobic gram negative bacteria, efflux pump mutant; format: cell-based, Escherichia coli; conditions: aerobic gram negative; E. coli NB27005*, TolC efflux pump mutant strain
[10] = test system: P. aeruginosa NB52020* (mexAB/oprM efflux pump mutant); assay: as above; format: cell-based, Pseudomonas aeruginosa; conditions: aerobic gram negative; P. aeruginosa NB52020*, mexAB/oprM efflux pump mutant strain
[11] = test system: H. influenzae NB65027-CDS0021* (TolC efflux pump mutant); assay: as above; format: cell-based, Haemophilus influenzae; conditions: aerobic gram negative; H. influenzae NB65027-CDS0021*, TolC efflux pump mutant strain
[12] = test system: gram-positive and gram-negative anaerobic bacteria; assay: MIC against panel of anaerobic bacteria, comparison with ciprofloxacin; format: cell-based; conditions: against all the anaerobic bacteria tested; molecular weights ~30000 da and 386 da
[13] = test system: E. coli; assay: Aggregation of E. coli in vitro, light microscopy; design: species or system Escherichia coli; conditions: 10^6 E. coli in 1 ml PBS, 20 microgram/ml protein, 12 hours
Protocol: FIG. 4: Aggregation of E. coli in vitro following incubation with recombinant Nod2 LRR domains. E. coli (10^6) in 1 ml of PBS were incubated with either 20 microgram/ml BSA or purified recombinant Nod2 LRR domains for 12 hours. Aliquots of the cultures were inoculated on a coverslipped slide and analyzed by light microscopy using a 63× objective.
The Nod2 positive staining of the bacteria in the cytoplasm of cultured cells could either be a direct interaction or result from the colocalization of Nod2 and bacteria in an unidentified vesicular structure. In order to test the hypothesis that the interaction between Nod2 and E. coli was direct, purified recombinant LRR domains from Nod2 were incubated with E. coli (FIG. 4). […] This supports the hypothesis that Nod2 LRR domains can directly interact with E. coli.

[14] = test system: B. subtilis; assay: Bacterial growth inhibition (FIG. 14); format: cell-based, Bacillus subtilis; conditions: FIG. 14 Panel A; increasing concentrations, relative to controls (100%)
Protocol: Values shown are relative to controls incubated in the absence of LRR domains (100%).

[15] = test system: L. monocytogenes; assay: Bacterial growth inhibition (FIG. 15); format: cell-based, Listeria monocytogenes; conditions: FIG. 15 Panel C
[16] = test system: H. influenzae NB65027; conditions: aerobic gram negative
[17] = test system: lawn of the indicated bacteria; assay: Agar diffusion assay; conditions: FIG. 11 Panel D; 0.5 mg/ml in sterile PBS per well
[18] = test system: Listeria monocytogenes (7644); assay: BacTiter-Glo bacterial ATP content viability assay; conditions: Listeria monocytogenes (7644), gram +; +/− SD, n = 3; >100 = activity detected but <50% inhibition
[19] = test system: Bacillus Subtilis (6633); assay: BacTiter-Glo bacterial ATP content viability assay; conditions: Bacillus Subtilis (6633), gram +; +/− SD, n = 3; >100 = activity detected but <50% inhibition
[20] = test system: Enterococcus faecalis (29212); assay: BacTiter-Glo bacterial ATP content viability assay; conditions: Enterococcus faecalis (29212), gram +; +/− SD, n = 3; >100 = activity detected but <50% inhibition
[21] = test system: Streptococcus pneumoniae (49619); assay: BacTiter-Glo bacterial ATP content viability assay; conditions: gram +, +/− SD, n = 3, >100 = activity detected but <50% inhibition
[22] = test system: Escherichia coli (25922); assay: BacTiter-Glo bacterial ATP content viability assay; conditions: gram −, +/− SD, n = 3, >100 = activity detected but <50% inhibition
[23] = test system: Klebsiella pneumoniae (700603); assay: BacTiter-Glo bacterial ATP content viability assay; conditions: gram −, +/− SD, n = 3, >100 = activity detected but <50% inhibition
[24] = test system: Pseudomonas aeruginosa (27853); assay: BacTiter-Glo bacterial ATP content viability assay; conditions: gram −, +/− SD, n = 3, >100 = activity detected but <50% inhibition
[25] = test system: Salmonella choleraesuis (13076); assay: BacTiter-Glo bacterial ATP content viability assay; conditions: gram −, +/− SD, n = 3, >100 = activity detected but <50% inhibition
[26] = test system: Stenotrophomonas maltophilia (17666); assay: BacTiter-Glo bacterial ATP content viability assay; conditions: gram −, +/− SD, n = 3, >100 = activity detected but <50% inhibition
[27] = test system: B. subtilis; assay: Membrane polarity, DiBAC4 uptake by flow cytometry; conditions: FIG. 11 Panels B and C; 5×10^5 bacteria in 100 μL, 2 hours at 37° C.
[28] = test system: Streptococcus pneumoniae (ATCC 49619); assay: Gentamycin protection assay in stable 293 cell lines; conditions: 293 cells stably expressing the protein, infected with S. pneumoniae at MOI 10:1, versus control cells
[29] = test system: porins (OmpC and OmpF); assay: LRR domain affinity column and mass spectrometry protein identification; conditions: guanidinium HCl extract of detergent-insoluble E. coli fraction; SDS-PAGE, mass spectrometry

B1: Nod2: purified recombinant LRR domain of Nod2 expressed in E. coli; human NOD2-LRR is SEQ ID NO: 3; ~30000 da (protein, listed as Homo sapiens)
chain: PAAPGEAKSVHAMPGFIWLIRSLYEMQEERLARKAARGLNVGHLKLTFCSVGPTECAALAFVLQHLRRPVALQLDYNSVGDIGVEQLLPCLGVCKALYLRDNNISDRGICKLIECALHCEQLQKLALFNNKLTDGCAHSMAKLLACRQNFLALRLGNNYITAAGAQVLAEGLRGNTSLQFLGFWGNRVGDEGAQALAEALGDHQSLRWLSLVGNNIGSVGAQALALMLAKNVMLEELCLEENHLQDEGVCSLAEGLKKNSSLKILKLSNNCITYLGAEALLQALERNDTILEVWLRGNTFSLEEVDKLGCRDTRLLL
notes: purified recombinant LRR domain of Nod2 expressed in E. coli; ~30000 da
- minimal inhibitory concentration (MIC) [1]: 4 microgram/ml
- minimal inhibitory concentration (MIC) [2]: 8 microgram/ml
- minimal inhibitory concentration (MIC) [3]: 8 microgram/ml
- minimal inhibitory concentration (MIC) [4]: 4 microgram/ml
- minimal inhibitory concentration (MIC) [5]: 4 microgram/ml
- minimal inhibitory concentration (MIC) [6]: 4 microgram/ml
- minimal inhibitory concentration (MIC) [7]: 4 microgram/ml
- minimal inhibitory concentration (MIC) [8]: >128 microgram/ml
- minimal inhibitory concentration (MIC) [9]: 32 microgram/ml
- minimal inhibitory concentration (MIC) [10]: >128 microgram/ml
- minimal inhibitory concentration (MIC) [11]: 4 microgram/ml
- potency relative to ciprofloxacin on a molar (mmoles/ml) basis [12]: 25-200 times
- aggregation of E. coli [13]: aggregated and debris could be observed
- growth of B. Subtilis [14]: inhibits the growth
- L. monocytogenes growth [15]: inhibited
- minimal inhibitory concentration (MIC) [16]: >128 microgram/ml
- anti-bacterial activity by agar diffusion assay [17]: Anti-bacterial activity
- antibacterial activity by bacterial ATP content (IC50), [LRR domain] [18]: 13.7 +/− 13.0 microgram/ml
- antibacterial activity by bacterial ATP content (IC50), [LRR domain] [19]: 3.9 +/− 0.6 microgram/ml
- antibacterial activity by bacterial ATP content (IC50), [LRR domain] [20]: 6.8 +/− 1.6 microgram/ml
- antibacterial activity by bacterial ATP content (IC50), [LRR domain] [21]: 3.0 +/− 1.6 microgram/ml
- antibacterial activity by bacterial ATP content (IC50), [LRR domain] [22]: >100 microgram/ml
- antibacterial activity by bacterial ATP content (IC50), [LRR domain] [23]: None detected
- antibacterial activity by bacterial ATP content (IC50), [LRR domain] [24]: None detected
- antibacterial activity by bacterial ATP content (IC50), [LRR domain] [25]: None detected
- antibacterial activity by bacterial ATP content (IC50), [LRR domain] [26]: None detected
- membrane polarity of B. subtilis (depolarised bacteria taking up DiBAC4) [27]: influence
- number of gentamycin-protected intracellular bacteria [28]: drastically reduced
- porins (OmpC and OmpF) identified in eluate of LRR affinity column [29]: specifically identified in the eluate
